B1: BCL2L13 (parent)
chain: QSLDQEILLKVKTEIEEELKSLDK
B2: RSPH3 (parent)
chain: LELQRQREARKRALARKQAQEQLR

Variants of: B1
Test: protein stability index of a GFP-peptide fusion (GPS, HEK-293T) (PSI 1-6); higher = more stable
Conditions: c terminus: a fixed tail appended
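Note: lentivirally expressed fusions sorted by FACS into six bins by GFP to DsRed ratio, PSI derived from sequencing read proportions per bin multiplied by bin number.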

Protein stability index of substitutions, site by site:
V11: F 4.83 | L 3.5 | C 4.77 | W 5.5 | M 4.95 | E 5.63 | P 5.61 | A 5.53 | G 5.36 | T 5.51
T13: M 3.65 | Y 4.14 | R 4.96 | W 3.48 | I 2.44 | D 4.44 | C 3.28 | V 3.58 | H 4.71 | P 5.34
L9: Q 5.37 | N 5.48 | K 4.81 | P 4.87 | V 5.26 | I 4.29 | G 5.13 | E 5.45 | R 5.05 | W 4.4 | C 5 | S 5.21
I15: F 5.36 | Q 5.46 | G 5.61 | N 5.58 | P 5.92 | V 5.08 | S 5.72 | Y 4.88 | E 5.8 | A 5.33 | L 4.85 | T 5.76 | M 5.08 | W 4.45
K24: M 3.67 | L 4.71 | R 4.53 | V 4.71 | Y 4.25 | C 4.53 | W 4.94 | Q 4.73 | I 4.58 | G 5.12 | D 5.27 | P 5.06 | A 5.1 | S 4.9 | N 5.04 | E 5.74
Q5: M 4.05 | H 3.64 | G 4.95 | D 5.28 | Y 3.38 | I 2.95 | W 3.67 | F 2.83 | N 4.61 | R 4.14 | L 2.99
K20: R 5.18 | F 4.2 | G 5.03 | S 5.33 | Q 4.63 | M 4.48 | N 5.17 | V 5.11 | D 4.86 | I 4.56 | T 5.09 | E 5.67 | H 4.48 | Y 4.3 | L 4.56 | C 4.9 | W 4.91
K12: L 2.13 | A 4.94 | H 4.71 | I 2.6 | G 5.65 | Q 4.62 | V 4.1 | R 4.77 | E 5.6 | N 5.97 | T 4.73 | C 4.43 | F 3.15
S21: T 4.59 | K 4.83 | N 5.38 | A 4.83 | L 4.46 | P 4.97 | C 4.98 | G 5.35 | F 4.72 | Y 4.25 | M 4.67 | H 4.44 | Q 4.86
E6: I 3.27 | D 4.83 | N 5.24 | F 3.51 | H 4.15 | A 3.94 | V 3.92 | P 5.35 | R 3.67 | W 2.76 | G 4.78
E18: I 2.58 | N 4.4 | V 3.69 | M 1.98 | P 4.32 | K 3.74 | A 4.02 | Q 3.88 | Y 2.17 | H 4.05 | D 5.58 | F 3.8 | R 4.16 | G 4.62 | L 3.06
I7: Y 5.46 | P 5.83 | T 4.27 | K 5.51 | R 5.61 | W 2.94 | S 5.69 | H 5.07 | F 4.64 | G 5.33 | A 5.66 | N 5.33 | E 5.63
S2: T 5.16 | H 4.75 | Q 4.97 | C 4.09 | L 3.95 | Y 4 | V 4.16 | F 4.24 | R 4.49 | M 4.2 | N 4.92 | K 4.24 | G 3.38
L3: S 5.31 | I 4.72 | Y 5.07 | G 5.16 | V 5.31 | M 5.47 | T 4.99 | P 4.59 | H 5.54 | E 5.63 | N 5.64 | C 4.97 | Q 5.41 | A 5.71 | W 4.66
E16: W 3.66 | G 5.21 | V 3.69 | R 4.79 | Q 5.04 | K 4.76 | Y 3.87 | D 5.17 | F 3.53 | I 4.35 | L 3.23 | T 4.72 | S 4.93 | H 4.4 | N 5.02 | C 3.97
E17: R 3.99 | P 4.95 | I 3.49 | G 4.93 | L 3.72 | K 4.41 | W 3.51 | N 4.11 | T 4.1 | M 4.08 | D 5.13 | C 3.87 | A 4.57 | F 3.54 | Y 3.67
L8: A 5.62 | G 5.45 | N 5.9 | F 5.14 | E 5.41 | Y 3.76 | H 5.63 | V 5.32 | T 5.71 | W 2.91 | I 4.14 | R 5.71
L22: K 5.47 | W 4.34 | M 5.12 | Q 5.3 | D 5.74 | N 5.16 | R 4.67 | C 5.34 | Y 5.02 | E 4.58 | I 4.49 | V 5.2 | F 5.37 | T 5.13 | S 5.41
K10: A 4.98 | N 5.21 | M 3.09 | L 3.19 | C 4.16 | P 5.4 | R 3.09 | V 3.53 | D 5.67 | I 3.21 | Y 3.85 | G 4.83 | S 5.01 | H 4.66 | F 3.67
E14: T 4.46 | L 2.82 | N 4.58 | W 2.47 | D 4.7 | V 3.48 | Y 3.16 | K 4.15 | M 3.7 | G 5.05 | C 4.03 | H 4.26 | F 3.06 | P 4.31 | R 3.85 | Q 4.84
D4: T 3.5 | Q 4.66 | N 4.52 | K 4.55 | W 2 | A 4.27 | H 4.69 | I 2.28 | L 2.79 | V 2.66 | E 4.58 | F 2.34
D23: C 3.42 | K 4.33 | G 4.41 | L 2.2 | I 3.3 | P 4.85 | Q 4.48 | F 2.14
L19: H 4.97 | C 5.02 | G 5.03 | V 5.63 | R 5.57 | Y 5.05 | P 5.64 | N 5 | W 4.46 | M 5.4 | K 5.19 | T 5.48 | A 5.68 | S 5 | Q 5.49 | F 4.76 | D 5.77
Q1: W 3.55 | T 4.6 | G 4.67 | S 4.54 | M 4.16 | L 3.7 | F 3.89 | A 5.04 | N 4.98 | C 4.3 | H 4.92 | E 4.67 | R 4.64 | V 3.97 | Y 3.69

Variants of: B2
Test: as above
Conditions: c terminus: a fixed tail appended

Protein stability index, by site and new letter:
L1: I 3.29 | K 3.78 | F 3.22 | A 3.16 | G 4.14 | H 3.96 | D 4.08 | C 4.05 | M 4.24 | E 4.26

Reference: the supplement of paper PMC10567573
